Results on one molecule are retold here after article PMC5442856, “A bacterial negative transcription regulator binding on an inverted repeat in the promoter for epothilone biosynthesis”.

This data set deals with T1, Esi (His-Esi) (Sorangium cellulosum So0157-2, UniProt UPI000354DD11 1-373).
T1 sequence: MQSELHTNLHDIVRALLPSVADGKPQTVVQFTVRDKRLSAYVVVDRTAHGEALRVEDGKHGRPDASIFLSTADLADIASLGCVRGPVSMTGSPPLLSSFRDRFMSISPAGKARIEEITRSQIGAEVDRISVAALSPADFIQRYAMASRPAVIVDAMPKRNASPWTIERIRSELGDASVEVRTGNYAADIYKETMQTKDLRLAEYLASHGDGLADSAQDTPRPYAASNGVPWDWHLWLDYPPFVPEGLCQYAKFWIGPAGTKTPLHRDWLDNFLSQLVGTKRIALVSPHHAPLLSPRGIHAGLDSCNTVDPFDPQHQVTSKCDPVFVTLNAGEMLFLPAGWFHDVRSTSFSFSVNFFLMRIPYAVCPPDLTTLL
As to the kind of experiment: EMSA; poly(dI-dC) competitor; increasing His-Esi; 12 pmol DNA; EMSA: 25 uL with 2.5 uL of 10x buffer (final about 12 mM HEPES, 4 mM Tris, 60 mM KCl, 5 mM MgCl2, 0.1 mM EDTA, pH 8.0), 1 uL glycerol buffer (20% glycerol, 20 mM HEPES), poly(dI-dC), remainder protein and 50 mM NaH2PO4; 30 C, 30 min; 5% native PAGE in TGE pH 8.0 at 4 C. Conditions: protein: recombinant; tags: N-terminal 6xHis (pET-28a); blunt.

B1: 17-bp operator of epothilone promoter (dsDNA)
DNA 1: GGGACGAGCTAATTCCC
DNA 2: GGGAATTAGCTCGTCCC
As for B1, the binding result is reported as “binds”.
